Assay results from patent publication US20100330076A1 (RESEARCH DEVELOPMENT FOUNDATION, published 2010).
Where a chain is given by its changes, count along the chain named.

B1: Fc611 (other)
chain: DKTHTCPPCPAPELLGGPSVFLFPPKPKDTLMISRTPEVTCVVVDVSHEDPEVKFNWYVDGVEVHNAKTKPREEQYNSTYRVVSVLTVLHQDWLNGKEYKCKVSNKALPAPIEKTISKAKVQPREPQVYTLPPSRDELTKNQVSLTCLVKGFYPSDIAVEWVSNGQPENNYKTTPPVLDSDGSFFLYSKLTVDKSRWQQGNVFSCSVIHEALHNHYTQKSLSLSPGK
notes: Aglycosylated Fc fragment (E. coli, pPelBFLAG), assayed on spheroplasts; not shown: C-terminal FLAG tag from pPelBFLAG
B2: Fc619 (other)
chain: B1 chain with V46M, V121G
notes: as for B1
B3: Fc601 (other)
chain: B1 chain with K118R
notes: Aglycosylated Fc fragment (E. coli, pPelBFLAG), assayed on spheroplasts; also called IgG1-Fc601; not shown: C-terminal FLAG tag from pPelBFLAG
B4: Fc703 (other)
chain: B1 chain with L108W, A110E, P111E, I112Y, V121G
notes: as for B1
B5: Fc613 (other)
chain: B1 chain with V149A
notes: as for B1
B6: Fc610 (other)
chain: B1 chain with F21L
notes: as for B1
B7: Fc706 (other)
chain: B1 chain with L108W, A110I, P111E, I112Y, V121G
notes: as for B1
B8: Fc704 (other)
chain: B1 chain with L108W, A110E, P111V, I112Y, V121G, S206T
notes: as for B1
B9: Fc702 (other)
chain: B1 chain with V59M, L108W, A110E, P111E, I112Y, V121G
notes: as for B1
B10: Fc708 (other)
chain: B1 chain with L108W, P111S, I112Y, V121G
notes: as for B1
B11: Fc615 (other)
chain: B1 chain with N105S
notes: as for B1
B12: Fc612 (other)
chain: B1 chain with N56D
notes: as for B1
B13: Fc618 (other)
chain: B1 chain with V121G, N214S
notes: as for B1
B14: Fc705 (other)
chain: B1 chain with L108W, A110E, P111V, I112Y, V121G
notes: as for B1
B15: Fc707 (other)
chain: B1 chain with L108W, A110E, I112Y, V121G
notes: as for B1
B16: Fc616 (other)
chain: B1 chain with Y80C
notes: as for B1
B17: Fc617 (other)
chain: B1 chain with V128M
notes: as for B1
B18: Fc609 (other)
chain: B1 chain with K118R, S204L, N214D
notes: as for B1
B19: Fc701 (other)
chain: B1 chain with Q75R, L108W, A110V, P111A, I112Y, V121G
notes: Aglycosylated Fc fragment (E. coli, pPelBFLAG), assayed on spheroplasts; also called IgG1-Fc701; not shown: C-terminal FLAG tag from pPelBFLAG
B20: Fc614 (other)
chain: B1 chain with N66D, N214S
notes: as for B1
B21: Fc603 (other)
chain: B1 chain with K120N, V121G
notes: as for B1
B22: Fc604 (other)
chain: B1 chain with K118I, K120N, V121G
notes: as for B1
B23: Fc606 (other)
chain: B1 chain with N105S, K120N, V121G
notes: as for B1
B24: Fc608 (other)
chain: B1 chain with K172E
notes: as for B1
B25: Fc605 (other)
chain: B1 chain with K120Q, V121G, A158D
notes: as for B1
B26: Fc607 (other)
chain: B1 chain with H4Y, E49K, N105S
notes: as for B1
B27: Fc602 (other)
chain: B1 chain with N77D, N95D, K120N, V121G
notes: as for B1

Each binder was assayed against T1, extracellular domain of recombinant glycosylated FcγRIa/CD64 (R&D Systems) labeled with FITC (human, UniProt P12314 16-292, FITC-labeled; glycosylated) (assay: flow cytometry of E. coli spheroplasts expressing the Fc fragment, labeled with FcγRIa-FITC).
T1 construct: extracellular domain; it is not restated for the bought reagent; also called FcγRIa-FITC; FcγRI-FITC
T1 sequence (P12314 16-292): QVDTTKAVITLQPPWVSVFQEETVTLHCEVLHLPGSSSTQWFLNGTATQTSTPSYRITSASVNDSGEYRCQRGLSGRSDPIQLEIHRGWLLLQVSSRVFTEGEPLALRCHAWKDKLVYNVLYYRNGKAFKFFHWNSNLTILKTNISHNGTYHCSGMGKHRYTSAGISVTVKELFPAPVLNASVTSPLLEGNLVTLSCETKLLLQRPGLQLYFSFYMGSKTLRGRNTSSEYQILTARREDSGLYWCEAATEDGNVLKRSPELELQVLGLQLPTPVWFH

binding result	Binder
binds	B1
binds	B2
binds	B3
binds	B4
binds	B5
binds	B6
binds	B7
binds	B8
binds	B9
binds	B10
binds	B11
binds	B12
binds	B13
binds	B14
binds	B15
binds	B16
binds	B17
binds	B18
binds	B19
binds	B20

Each binder was assayed against T1, extracellular domain of recombinant … (assay: flow cytometry of E. coli spheroplasts labeled with FcγRIa-FITC (summary in Example 3)).

binding result	Binder
binds	B21
binds	B22
binds	B23
binds	B24
binds	B25
binds	B26
binds	B27
